Publication PMC8547449 (2021)

Biological target: T1, C4b-binding protein (human, UniProt P04003 49-597; P20851 18-252)
T1 chain 1: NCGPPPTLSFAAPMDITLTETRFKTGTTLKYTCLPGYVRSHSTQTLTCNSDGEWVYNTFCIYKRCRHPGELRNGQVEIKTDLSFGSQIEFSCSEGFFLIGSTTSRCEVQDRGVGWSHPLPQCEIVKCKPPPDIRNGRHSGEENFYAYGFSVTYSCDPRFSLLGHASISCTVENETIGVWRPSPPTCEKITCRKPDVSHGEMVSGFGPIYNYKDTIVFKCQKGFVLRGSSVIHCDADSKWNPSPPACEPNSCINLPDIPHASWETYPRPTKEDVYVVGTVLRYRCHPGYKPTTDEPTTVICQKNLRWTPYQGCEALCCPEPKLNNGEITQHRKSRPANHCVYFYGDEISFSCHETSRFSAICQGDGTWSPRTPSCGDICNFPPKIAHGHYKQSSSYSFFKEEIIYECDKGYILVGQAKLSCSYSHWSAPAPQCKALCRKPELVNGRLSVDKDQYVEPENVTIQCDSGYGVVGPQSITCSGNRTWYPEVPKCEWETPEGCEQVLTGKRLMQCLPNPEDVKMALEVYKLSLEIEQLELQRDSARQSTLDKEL
T1 chain 2: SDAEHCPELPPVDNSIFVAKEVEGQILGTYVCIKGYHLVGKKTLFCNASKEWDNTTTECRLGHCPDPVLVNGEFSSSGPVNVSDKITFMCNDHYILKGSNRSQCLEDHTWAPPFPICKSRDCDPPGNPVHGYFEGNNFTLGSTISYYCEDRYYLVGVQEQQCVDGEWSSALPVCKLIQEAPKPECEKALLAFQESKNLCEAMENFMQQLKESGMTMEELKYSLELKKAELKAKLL
Test: SPR

B1: M28 protein, recombinant, affinity tag removed by TEV protease (natural protein)
chain: AESPKSTETSANGADKLADAYNTLLTEHEKLRDEYYTLIDAKEEEPRYKALRGENQDLREKEGKYQDKIKKLEEKEKNLEKKSEDVERHYLKKLDQEHKEQEERQKNLEELERQSQREIDKRYQEQLQKQQQLETEKQISEASRKSLSRDLEASRAAKKDLEAEHQKLKEEKQISDASRQGLSRDLEASRAAKKDLEAEHQKLKEEKQISDASRQGLSRDLEASREAKKKVEADLAEANSKLQALEKLNKELEEGKKLSEKEKAELQARLEAEAKALKEQLAKQAEELAKLKGNQTPNAKVAPQANRSRSAMTQQKR
Kd: 0.188 nM
